Data set [1] concerns the molecule itself. As to the kind of experiment: crystal structure; apo-AstC without PLP; space group R32:h, 2 molecules in the asymmetric unit, 2.75 Å; grown in 1.4 M sodium malonate pH 7 at 20 °C; dimers formed by crystallographic symmetry.
Data set [2] concerns the molecule itself. Briefly: dynamic light scattering; in solution; hydrodynamic radius mean value 4.5 nm, about 100 kDa; data not shown.

B1: apo-AstC, N-succinylornithine transaminase from Escherichia coli, without PLP (enzyme, E. coli (BL21 DE3), UniProt P77581 1-406, looked up)
chain: MSQPITRENFDEWMIPVYAPAPFIPVRGEGSRLWDQQGKEYIDFAGGIAVNALGHAHPELREALNEQASKFWHTGNGYTNEPVLRLAKKLIDATFADRVFFCNSGAEANEAALKLARKFAHDRYGSHKSGIVAFKNAFHGRTLFTVSAGGQPAYSQDFAPLPADIRHAAYNDINSASALIDDSTCAVIVEPIQGEGGVVPASNAFLQGLRELCNRHNALLIFDEVQTGVGRTGELYAYMHYGVTPDLLTTAKALGGGFPVGALLATEECARVMTVGTHGTTYGGNPLASAVAGKVLELINTPEMLNGVKQRHDWFVERLNTINHRYGLFSEVRGLGLLIGCVLNADYAGQAKQISQEAAKAGVMVLIAGGNVVRFAPALNVSEEEVTTGLDRFAAACEHFVSRGSS
notes: AstC (acetyl/succinylornithine aminotransferase) of E. coli; native, untagged protein, no plasmid or clone used; electron density from Gln3 to Ser402, the last 4 residues (Arg-Gly-Ser-Ser) not modelled, which implies 406 residues; Endogenous protein of strain BL21 (DE3); also called apo-protein; apo-enzyme; source: endogenous, E. coli BL21 (DE3) grown in 2xYT, purified (Ni-NTA, size exclusion …)
Take B1: the binding result in data set [1] was “binds”.

B2: holo-AstC, N-succinylornithine transaminase from Escherichia coli reconstituted with PLP (enzyme, E. coli (BL21 DE3), UniProt P77581 1-406, looked up)
chain: B1 chain
modifications: PLP bound to Lys252 in a Schiff base (aldimine)
notes: AstC (acetyl/succinylornithine aminotransferase) of E. coli; native, untagged protein, no plasmid or clone used; the last 4 residues (Arg-Gly-Ser-Ser) after Ser402 not modelled, which implies 406 residues; Same polypeptide as m1, with the cofactor PLP added; Endogenous protein of strain BL21 (DE3); also called holo-enzyme; PLP/enzyme complex; source: endogenous, E. coli BL21 (DE3), purified …
On to B2, for which the “stoichiometry N” value in data set [2] came to 2.

For the origin of these results see PMC3590144, “Determination of the Structure of the Catabolic N-Succinylornithine Transaminase (AstC) from Escherichia coli” (PLoS ONE, 2013).
